According to publication doi:10.1101/2022.08.02.502557:

Target: Trimeric LHCII complexes (the major antenna complex of photosystem II) (spinach)
Assay: native gel or EMSA

stoichiometry N: 3
Substance: Trimeric LHCII complexes (the major antenna complex of photosystem II)
